Experimental data as given in PMC9062482, “Structural and genome-wide analyses suggest that transposon-derived protein SETMAR alters transcription and splicing”.
Positions count from the first letter of the chain named.

Key:
[1] = biological target: SETMAR DNA-binding domain, residues 329 to 440 (C381R) (I359M) (L423M) (human); experiment: crystal structure; SETMAR DBD 329-440 (C381R, I359M, L423M) with brominated 25-mer TIR DNA duplex, protein:DNA 1:1.2, 50 mM Hepes pH 7.5, 150 mM NaCl, 1 mM DTT; hanging drops at 20 °C, 0.1 M magnesium formate, 15% PEG3350; 2.37 Å
SETMAR full-length WT [2] = biological target: T1, SETMAR full-length WT (Homo sapiens, UniProt Q53H47 14-684); experiment: competition (fluorescence anisotropy); 300 nM protein, 20 nM probe; FA and competition: 50 mM Hepes pH 7.0, 150 mM NaCl, 1 mM DTT; temperature not stated. Crystals: 50 mM Hepes pH 7.5, 150 mM NaCl, 1 mM DTT; 0.1 M Mg formate, 15% PEG3350, 20 C; details: protein: recombinant; chain copies: 2; blunt
T1 sequence: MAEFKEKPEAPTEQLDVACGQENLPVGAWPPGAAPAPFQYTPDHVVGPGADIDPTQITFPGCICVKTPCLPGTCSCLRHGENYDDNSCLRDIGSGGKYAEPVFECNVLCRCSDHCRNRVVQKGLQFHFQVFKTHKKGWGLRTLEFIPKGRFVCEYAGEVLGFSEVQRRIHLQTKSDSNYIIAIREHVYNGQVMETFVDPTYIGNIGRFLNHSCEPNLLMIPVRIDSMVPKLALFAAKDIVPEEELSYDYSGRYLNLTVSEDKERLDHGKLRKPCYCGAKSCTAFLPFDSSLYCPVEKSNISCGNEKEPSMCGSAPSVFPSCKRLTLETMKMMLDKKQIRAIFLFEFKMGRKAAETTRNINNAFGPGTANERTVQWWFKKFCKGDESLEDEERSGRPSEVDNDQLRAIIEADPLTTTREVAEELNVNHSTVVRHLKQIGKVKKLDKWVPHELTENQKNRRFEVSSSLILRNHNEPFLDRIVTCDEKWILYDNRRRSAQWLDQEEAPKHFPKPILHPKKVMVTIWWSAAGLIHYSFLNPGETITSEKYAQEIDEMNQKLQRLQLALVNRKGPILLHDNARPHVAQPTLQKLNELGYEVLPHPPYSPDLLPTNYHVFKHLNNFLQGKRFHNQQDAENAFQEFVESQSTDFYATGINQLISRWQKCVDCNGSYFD

SETMAR DBD C381R = biological target: T2, SETMAR DBD C381R (Homo sapiens, UniProt Q53H47 342-453, C394R); experiment: X-ray crystallography; 2.37 A; FA and competition: 50 mM Hepes pH 7.0, 150 mM NaCl, 1 mM DTT; temperature not stated. Crystals: 50 mM Hepes pH 7.5, 150 mM NaCl, 1 mM DTT; 0.1 M Mg formate, 15% PEG3350, 20 C; details: protein: recombinant; tags: none (His-SUMO removed); chain copies: 2; 25 bp, 3' overhang 1 nt on each strand (A and T)
T2 sequence: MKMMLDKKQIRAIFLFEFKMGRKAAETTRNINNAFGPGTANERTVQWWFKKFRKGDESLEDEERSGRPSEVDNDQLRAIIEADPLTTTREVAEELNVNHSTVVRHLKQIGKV

SETMAR R432A = biological target: T3, SETMAR R432A (Homo sapiens, UniProt Q53H47 14-684, R445A); experiment: fluorescence anisotropy; 10 nM probe; FA and competition: 50 mM Hepes pH 7.0, 150 mM NaCl, 1 mM DTT; temperature not stated. Crystals: 50 mM Hepes pH 7.5, 150 mM NaCl, 1 mM DTT; 0.1 M Mg formate, 15% PEG3350, 20 C; details: protein: recombinant; chain copies: 2; label: 5' rhodamine (C6 amino) on strand 2; blunt
T3 sequence: T1 sequence with R432A

SETMAR S428A = biological target: T4, SETMAR S428A (Homo sapiens, UniProt Q53H47 14-684, S441A); experiment: as above; details: protein: recombinant; chain copies: 2; label: 5' rhodamine (C6 amino) on strand 2; blunt
T4 sequence: T1 sequence with S428A

SETMAR R371A = biological target: T5, SETMAR R371A (Homo sapiens, UniProt Q53H47 14-684, R384A); experiment: as above; details: protein: recombinant; chain copies: 2; label: 5' rhodamine (C6 amino) on strand 2; blunt
T5 sequence: T1 sequence with R371A

SETMAR full-length WT [3] = biological target: T1, SETMAR full-length WT; experiment: fluorescence anisotropy; 20 nM probe; FA and competition: 50 mM Hepes pH 7.0, 150 mM NaCl, 1 mM DTT; temperature not stated. Crystals: 50 mM Hepes pH 7.5, 150 mM NaCl, 1 mM DTT; 0.1 M Mg formate, 15% PEG3350, 20 C; details: protein: recombinant; chain copies: 2; label: 5' rhodamine (C6 amino) on strand 2; blunt
SETMAR full-length WT [4] = biological target: T1, SETMAR full-length WT; experiment: fluorescence anisotropy; 10 nM probe; mutant comparison series; FA and competition: 50 mM Hepes pH 7.0, 150 mM NaCl, 1 mM DTT; temperature not stated. Crystals: 50 mM Hepes pH 7.5, 150 mM NaCl, 1 mM DTT; 0.1 M Mg formate, 15% PEG3350, 20 C; details: protein: recombinant; chain copies: 2; label: 5' rhodamine (C6 amino) on strand 2; blunt
[5] = biological target: T6, SETMAR DBD C381R I359M L423M (SeMet) (Homo sapiens, UniProt Q53H47 342-453, I372M;C394R;L436M); experiment: X-ray crystallography; Se-SAD phasing, 2.66 A; FA and competition: 50 mM Hepes pH 7.0, 150 mM NaCl, 1 mM DTT; temperature not stated. Crystals: 50 mM Hepes pH 7.5, 150 mM NaCl, 1 mM DTT; 0.1 M Mg formate, 15% PEG3350, 20 C; details: protein: recombinant; tags: none (His-SUMO removed); chain copies: 2; 25 bp, 3' overhang 1 nt on each strand (A and T)
T6 sequence: T2 sequence with I31M, L95M

SETMAR DNA-binding domain, residues 329 to 440 (C381R) (I359M) (L423M) (domain or fragment)
stoichiometry N [1]: 2

B1: Hsmar1 TIR without sequence-specific binding sites (dsDNA)
DNA 1: TTAGGTTAATATAAAAGTAATTGTGGTT
DNA 2: AACCACAATTACTTTTATATTAACCTAA
binding result (SETMAR full-length WT [2]): no binding

B2: TIR crystallization duplex (dsDNA)
DNA 1: GGTTGGTGCAAAAGTAATTGCGGTTA
DNA 2: AACCGCAATTACTTTTGCACCAACCT
binding result (SETMAR DBD C381R): binds

B3: Mos1 TIR (dsDNA)
DNA 1: TCAGGTGTACAAGTATGAAATGTCGTTT
DNA 2: AAACGACATTTCATACTTGTACACCTGA
binding result (SETMAR full-length WT [2]): no binding

B4: rhodamine Hsmar1 TIR probe (dsDNA)
DNA 1: TTAGGTTGGTGCAAAAGTAATTGCGGTT
DNA 2: AACCGCAATTACTTTTGCACCAACCTAA
Kd (SETMAR R432A): 302 ± 47 nM
Kd (SETMAR S428A): 485 ± 58 nM
Kd (SETMAR R371A): 521 ± 65 nM
Kd (SETMAR full-length WT [3]): 53 ± 4 nM
Kd (SETMAR full-length WT [4]): 42 ± 5 nM

B5: BrdU-substituted TIR crystallization duplex (dsDNA)
DNA 1: GGTTGGTGCAAAAGTAATTGCGGTTA
DNA 2: AACCGCAATTACTTTTGCACCAACCT
modifications: 5-bromodeoxyuridine replacing underlined Ts (positions not visible in text)
binding result [5]: binds
